Assay results reported in PMC4313731 (Chemistry & biology, 2013).
Substitutions are numbered along the chain they refer to. In names and notes the source's numbering stands.

B1: PhnY (Sinorhizobium meliloti 1021; R447A) (protein)
chain: MTNAEVTIAVRHEPMRIAGRLVDTDDRVEVRYPWNDTVVGTVPAGRAEHAREAFAIAAAYQPKLTRYERQKILLATAEALAARKEEISDVITLELGISKADSLYEVGRAFDVFTLAGQMCIRDDGEIFSCDLTPHGKARKIFTMREPLTAISAITPFNHPLNMVAHKVAPAIATNNCVVVKPTELTPMTALLLADILYEAGLPPEMLSVVTGWPADIGMEMITNPHVDLVTFTGSVPVGKLIAANAHYKRQVLELGGNDPLIILNDLSDDDLARAADLAVAGATKNSGQRCTAVKRILCQESVADRFVPLVLERAKRLRFGDPMDRSTDLGTVIHEKAAALFEERVMRAAEEGADILYHPGRSGALLPPIVVDRVPHQSDLVLEETFGPIIPIVRVPDDDDATITLSNSTAFGLSSGVCTNDYRRMQKYIAGLKVGTVNIWEVPGYAIEMSPFGGIKDSGNGYKEGVIEAMKSFTNVKTFSLPWP
B2: PhnY (Sinorhizobium meliloti 1021; N158A) (protein)
chain: B1 chain with N158A, A447R
B3: PhnY (Sinorhizobium meliloti 1021; R290A) (protein)
chain: B1 chain with R290A, A447R
B4: PhnY (Sinorhizobium meliloti 1021; R108A) (protein)
chain: B1 chain with R108A, A447R
B5: PhnY (Sinorhizobium meliloti 1021) (protein)
chain: B1 chain with A447R
B6: GAPDH (Streptococcus mutans UA159) (protein)
chain: MTKQYKNYVNGEWKLSENEIKIYEPASGAELGSVPAMSTEEVDYVYASAKKAQPAWRSLSYIERAAYLHKVADILMRDKEKIGAVLSKEVAKGYKSAVSEVVRTAEIINYAAEEGLRMEGEVLEGGSFEAASKKKIAVVRREPVGLVLAISPFNYPVNLAGSKIAPALIAGNVIAFKPPTQGSISGLLLAEAFAEAGLPAGVFNTITGRGSEIGDYIVEHQAVNFINFTGSTGIGERIGKMAGMRPIMLELGGKDSAIVLEDADLELTAKNIIAGAFGYSGQRCTAVKRVLVMESVADELVEKIREKVLALTIGNPEDDADITPLIDTKSADYVEGLINDANDKGAAALTEIKREGNLICPILFDKVTTDMRLAWEEPFGPVLPIIRVTSVEEAIEISNKSEYGLQASIFTNDFPRAFGIAEQLEVGTVHINNKTQRGTDNFPFLGAKKSGAGIQGVKYSIEAMTTVKSVVFDIK

Experiments:
PhnY = PhnY (Sinorhizobium meliloti, UniProt Q92UV7); assay: X-ray crystal structure of ternary complex with NAD+, […] Å; assay type: binding; conditions: NAD+ bound; active site, non-covalent
[1] = substrate: O=CCP(=O)(O)O; assay: steady-state kinetics, NAD+ reduction monitored; assay type: biochemical, Sinorhizobium meliloti; conditions: saturating NAD+, 50 mM HEPES pH 7.5, 10 mM MgSO4, 30 °C
[2] = substrate: O=CCCP(=O)(O)O; assay: steady-state kinetics, NAD+ reduction monitored; assay type: biochemical, Sinorhizobium meliloti; conditions: 50 mM HEPES pH 7.5, 10 mM MgSO4, 30 °C
[3] = substrate: O=CCCP(=O)(O)O; assay: steady-state kinetics, NADP+ reduction monitored; assay type: biochemical, Streptococcus mutans; conditions: saturating NADP+, 50 mM HEPES pH 8.0, 5 mM DTT
[4] = substrate: O=CC(O)COP(=O)(O)O; assay: steady-state kinetics, NADP+ reduction monitored; assay type: biochemical, Streptococcus mutans; conditions: racemic G3P, saturating NADP+, 50 mM HEPES pH 8.0, 5 mM DTT

PhnY, sequence (Q92UV7 whole entry): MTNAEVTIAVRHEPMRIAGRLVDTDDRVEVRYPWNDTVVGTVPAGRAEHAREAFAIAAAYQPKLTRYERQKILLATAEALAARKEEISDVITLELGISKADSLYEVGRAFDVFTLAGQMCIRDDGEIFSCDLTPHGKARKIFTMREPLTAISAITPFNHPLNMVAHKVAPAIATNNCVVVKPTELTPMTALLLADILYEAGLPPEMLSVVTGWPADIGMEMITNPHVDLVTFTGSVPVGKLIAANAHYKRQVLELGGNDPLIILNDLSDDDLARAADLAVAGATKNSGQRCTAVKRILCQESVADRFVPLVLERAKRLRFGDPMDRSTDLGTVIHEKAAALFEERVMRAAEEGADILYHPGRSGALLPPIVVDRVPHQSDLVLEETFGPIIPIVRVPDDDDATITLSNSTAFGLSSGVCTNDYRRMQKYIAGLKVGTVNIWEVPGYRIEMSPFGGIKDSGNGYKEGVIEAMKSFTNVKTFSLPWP

Molecule | Km [1] [µM] | kcat [1] [s⁻¹] | further results
O=C(O)CP(=O)(O)O [PnA] | – | – | X-ray crystal structure of ternary complex with NAD+, 2.07 Å (PhnY): cocrystal structure of PhnY in complex with NAD^+ and PnA shows clear and continuous density
B1 | 150 ± 20 | 0.076 ± 0.003 | –
B2 | 29 ± 9 | 0.010 ± 0.001 | –
B3 | 5.1 ± 0.6 | 0.12 ± 0.003 | –
B4 | 9.7 ± 0.8 | 0.051 ± 0.001 | –
B5 | – | – | Km [2]: 3.3 ± 0.1 mM; kcat [2]: 1.5 ± 0.1 s⁻¹
B6 | – | – | Km [3]: 1500 ± 300 µM; kcat [3]: 0.038 ± 0.022 s⁻¹; Km [4]: 25 ± 7 µM; kcat [4]: 22 ± 2 s⁻¹
